This assay has as its target T1, restricted (IL4 independent) hIL13 receptor (human, UniProt Q14627 27-380).
T1 construct: whole, on cells; also called restricted receptor; restrictive receptor
T1 sequence (looked up): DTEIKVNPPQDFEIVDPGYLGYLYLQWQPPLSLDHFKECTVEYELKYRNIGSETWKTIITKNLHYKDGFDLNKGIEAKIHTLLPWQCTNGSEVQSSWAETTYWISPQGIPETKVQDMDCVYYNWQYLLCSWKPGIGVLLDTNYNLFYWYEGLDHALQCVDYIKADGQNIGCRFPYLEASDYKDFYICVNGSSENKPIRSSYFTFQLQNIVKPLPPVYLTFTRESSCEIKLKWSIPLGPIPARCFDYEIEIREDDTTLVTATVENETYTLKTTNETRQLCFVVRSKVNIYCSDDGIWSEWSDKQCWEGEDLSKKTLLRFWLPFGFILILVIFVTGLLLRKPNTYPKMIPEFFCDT
Kind of assay: autoradiography competition on GBM tissue sections against ^125I-hIL13.E13Y.

Experimental: Serial tissue sections were cut (10 mm) on a cryostat, thaw-mounchrome alumme-alum coated slides, and stored at 4° C. until analyzed. […] To dissociate non-specifically bound radioligand, sections were rinsed in four consecutive changes (5 minutes each) of ice-cold 0.1 M PBS. […] After drying, labeled sections were apposed to Kodak autoradiography film at −65° C. for 8 hr to 11 days.

B1: recombinant hIL4 (human interleukin 4) (ligand, UniProt P05112 25-153, looked up)
chain: HKCDITLQEIIKTLNSLTEQKTLCTELTVTDIFAASKNTTEKETFCRAATVLRQFYSHHEKDTRCLGATAQQFHRHKQLIRFLKRLDRNLWGLAGLNSCPVKEANQSTLENFLERLKTIMREKYSKCSS
Take B1: the binding result is listed as “no binding (tested: 100- to 500-fold molar excess)”.

The values above are taken from US20020159972A1 (PENN STATE RESEARCH FOUNDATION, published 2002).
